Source: the supplement of paper PMC10567573

B1: CCDC6 (parent)
chain: TLFKKIQALQKEKETLAVNYEKEE
B2: PI4K2A (parent)
chain: FVKDPQGRIIAVFKPKNEEPYGHL

Variants of: B1
Experiment: protein stability index of a GFP-peptide fusion (GPS, HEK-293T) (PSI 1-6); higher = more stable
Conditions: c terminus: a fixed tail appended
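Further: lentivirally expressed fusions sorted by FACS into six bins by GFP to DsRed ratio, PSI derived from sequencing read proportions per bin multiplied by bin number.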

Protein stability index of substitutions, site by site:
Y20: L 3.45 | K 3.68 | W 3.26 | G 3.71 | C 3.32 | E 4.32 | N 3.57 | Q 4.34 | P 3.21 | I 2.96 | V 3.47 | A 3.54
L2: Q 4.91 | I 3.4 | A 4.08 | D 5.26 | W 3.68 | R 5.13 | T 5.1 | V 3.82 | H 4.96 | E 5.56
F3: L 3.08 | D 5.28 | M 3.41 | V 3.76 | H 4.9 | P 5.44 | S 4.62 | K 4.78 | I 3.51 | N 4.59 | T 5.1 | Y 3.67 | G 5.23 | E 5.42
E12: L 1.97 | R 2.75 | N 3.09 | G 3.05 | A 2.66 | P 3.66 | V 2.52 | Y 2.11 | H 2.63 | D 3.37 | C 2.1 | M 2.49 | S 2.63 | T 2.62
L9: K 4.35 | P 5.08 | I 3.57 | D 4.67 | H 3.88 | Y 3.23 | R 4.25 | V 4.22 | S 4.05
A8: G 3.72 | Q 3.23 | T 3.49 | S 3.47 | D 3.51 | R 3.38 | I 3.4 | F 3.54 | P 4.25 | K 3.88 | C 3.15 | E 4.05
V18: Y 2.53 | T 3.02 | Q 3.21 | S 3.31 | G 3.15 | R 2.66 | W 2.03 | P 3.16 | F 2.58
E23: R 2.29 | L 2.19 | N 3.14 | V 2.27 | K 2.68 | Q 2.63 | P 2.25 | A 2.68 | W 1.78 | D 3.32
N19: Q 3.08 | M 2.65 | A 3.11 | K 2.69 | L 2.41 | C 3.14 | F 2.18 | G 3.25 | I 2.7 | W 2.11 | V 2.58
E24: S 2.77 | D 3.45 | Y 2.02 | Q 2.84 | H 2.39 | R 2.1 | N 2.7 | I 2.19 | A 2.79 | P 2.53
E21: H 2.84 | T 2.84 | K 2.58 | D 3.2 | G 3.01 | S 3.06 | I 1.97 | V 2.52 | Y 1.78 | R 2.36 | P 2.72
Q7: N 4.02 | K 3.31 | P 4.7 | F 2.3 | R 2.98 | A 2.85 | I 2.6 | M 2.73 | S 3.65 | T 3.54
K13: N 3.17 | A 2.58 | D 3.96 | M 2.65 | C 2.28 | H 2.81 | V 1.84 | L 1.93 | S 3.23 | Q 3.13 | T 3.4
L16: G 4.09 | P 3.44 | F 2.81 | D 3.88 | I 2.69 | Y 3.58 | W 1.86 | H 3.91 | K 2.83 | Q 4.1 | C 3.05
E14: W 2.03 | I 2.25 | A 2.6 | R 2.6 | H 2.58 | G 3.1 | K 2.94 | N 3.15 | F 2.16 | Q 3.11 | P 2.64
K4: F 3.44 | L 3.05 | E 3.33 | I 2.76 | S 3.82 | C 2.73 | R 3.35 | D 4.37 | V 3.52 | A 3.01 | N 3.68 | H 3.88 | T 4.27
K11: M 2.78 | Q 3.21 | D 3.79 | C 3.12 | G 3.71 | T 2.89 | W 2.28 | S 3.36 | R 2.59 | H 3.28 | N 3.55 | E 3.69 | F 2.94
K5: G 4.19 | L 2.27 | H 2.88 | I 1.79 | V 1.76 | P 4.74 | C 2.52
T1: S 2.92 | M 2.51 | L 2.38 | F 2.64 | P 3.71 | K 3.06 | R 3.04
A17: S 2.71 | Q 3.04 | W 2.16 | H 2.95 | M 2.75 | N 2.65 | R 2.76 | D 3.74
I6: W 3.4 | E 5.39 | L 3.59 | K 4.92 | Q 4.28 | D 5.34 | R 4.79 | G 5.06 | M 4.32 | A 4.59 | Y 3.93 | F 3.99 | P 4.78
Q10: E 4.41 | P 3.99 | F 2.2 | S 3.41 | D 4.41 | R 2.64 | I 2.35 | K 3.08 | G 3.89 | Y 2.64
K22: D 3.88 | Q 3.3 | L 2.89 | V 2.94 | N 3.12 | G 3.39 | E 3.72 | M 3.08 | P 3.5 | H 3.15 | S 3.29 | T 2.68
T15: D 3.89 | Q 2.98 | V 3.42 | A 2.97 | M 2.85 | L 2.54 | C 2.84 | I 3.98 | R 2.88 | E 3.77

Variants of: B2
Experiment: as above
Conditions: c terminus: a fixed tail appended

Protein stability index: each site, then its substitutions
D4: K 2.28 | H 1.12 | Y 2.06 | F 2.21 | G 1 | P 1.31 | T 1.48 | C 2.08 | Q 2.74 | L 1.11 | S 1.7 | A 2.86 | E 1.49
V2: Y 1.95 | L 2.45 | K 2.04 | D 3.36 | N 3.04 | A 2.07 | R 2.88 | I 2.01 | P 2.13 | S 2.44 | E 3.33 | F 2.17 | C 1.33 | Q 1.99 | W 1.71 | G 2.09 | T 1.94 | M 2.42
P5: D 2.03 | K 2.07 | Q 2.83 | H 2.51 | W 2.7 | E 2.04 | T 1.67 | R 2.16 | G 1.5 | A 1.83 | C 1.66 | L 1.39 | M 1.3 | N 2.29
F1: I 2.18 | T 3.36 | V 2.84 | H 2.44 | N 3.21 | G 3.09 | A 2.63 | E 3.71 | W 1.89 | L 2.25 | D 3.69 | Q 3.69 | C 2.77 | M 2.76 | S 2.76 | P 4.09 | K 2.8
K3: L 1.85 | P 1.91 | G 2.56 | S 2.67 | C 2.7 | M 1.47 | Y 2.01 | E 1.42 | A 1.57 | R 3.49 | W 2.19 | H 1.68 | I 2.03 | Q 1.32
